Data as given in patent US20100311955A1 (SHANHAI GUOJIAN BIO TECH INSTITUTE, published 2010).
“And” between values parts separate entries of the source, which are not always exact repeats. Equal values may be shown once.

B1: humanized antibody h4C8 (h4C8Hb/h4C8Lb) (antibody, human IgG1, V domains shown)
VH: QIQLVQSGSELKKPGASVKVSCKASGYTFTNYGMNWVRQAPGQGLKWMGWINTNTGEPKYAEEFKGRFALSLDTSVSTAYLQINSLKAEDTAVYFCARGYGNYARGAWLAYWGQGTLVTVSS
VL: DVLLTQSPLSLPVTLGQPASISCRSSQTIVHSNGNTYLEWFQQRPGQSPRLLIYQVSNRFSGVPDRFSGSGSGTDFTLKISRVEAEDVGVYYCFQGSHVPRTFGGGTKVEIKR
notes: CDR-grafted antibody with nine murine framework residues kept; also called humanized anti-CD34 antibody; hu4C8
B2: chimeric antibody c4C8 (antibody, human IgG1, kappa, V domains shown)
VH: QIQLVQSGPELKKPGETVNISCKASGYTFTNYGMNWVKQAPGKGLKWMGWINTNTGEPKYAEEFKGRFALSLETSASTAYLQINNLKNEDTATYFCARGYGNYARGAWLAYWGQGTLVTVSA
VL: DVLLTQTPLSLPVSLGDQASISCRSSQTIVHSNGNTYLEWFLQKPGQSPKLLIYQVSNRFSGVPDRFSGSGSGTDFTLKISRVEAEDLGVYYCFQGSHVPRTFGGGTKLEIKR
notes: also called 4C8 chimeric antibody
B3: anti-human CD34 monoclonal antibody 4C8 (antibody, V domains shown)
VH: QIQLVQSGPELKKPGETVNISCKASGYTFTNYGMNWVKQAPGKGLKWMGWINTNTGEPKYAEEFKGRFALSLETSASTAYLQINNLKNEDTATYFCARGYGNYARGAWLAYWGQGTLVTVSA
VL: DVLLTQTPLSLPVSLGDQASISCRSSQTIVHSNGNTYLEWFLQKPGQSPKLLIYQVSNRFSGVPDRFSGSGSGTDFTLKISRVEAEDLGVYYCFQGSHVPRTFGGGTKLEIKR
notes: Mouse hybridoma antibody purified on Protein G; also called murine-derived monoclonal antibody 4C8; FITC-4C8

Assays:
[1] = target: human CD34 (antigen on human myeloid leukemia cell KG-1a) (human) (UniProt P28906); assay: flow cytometry competition on KG-1a cells, competitor FITC-My10; single test
[2] = target: human CD34 (antigen on human myeloid leukemia cell KG-1a) (human) (UniProt P28906); assay: flow cytometry competition on KG-1a cells, competitor FITC-My10; mean of 3 tests
[3] = target: T1, human CD34 (antigen on human myeloid leukemia cell KG-1a) (human, UniProt P28906 32-385); assay: flow cytometry competition on KG-1a cells, competitor FITC-4C8
T1 construct: whole, on cells; Target in all assays is CD34 on KG-1a cells, which highly express it; also called antigen CD34
T1 sequence (looked up): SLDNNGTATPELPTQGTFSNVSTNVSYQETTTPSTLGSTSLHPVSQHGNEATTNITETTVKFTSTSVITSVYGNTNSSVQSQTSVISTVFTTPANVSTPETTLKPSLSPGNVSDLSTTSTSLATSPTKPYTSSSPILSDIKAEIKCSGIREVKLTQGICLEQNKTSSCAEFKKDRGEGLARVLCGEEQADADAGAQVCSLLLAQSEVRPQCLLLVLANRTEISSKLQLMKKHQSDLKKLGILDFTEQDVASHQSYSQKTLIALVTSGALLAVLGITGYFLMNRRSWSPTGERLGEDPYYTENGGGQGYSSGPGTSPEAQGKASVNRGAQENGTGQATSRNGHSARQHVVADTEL
Procedure: A fixed subsaturating concentration of fluorescently labeled antibody FITC-4C8 and serial dilution of unlabeled purified antibodies were mixed respectively and then added into target KG-1a cells (1×10⁶/ml), and incubated at 4° C. for 60 min, the cells were washed twice with 1% FCS-PBS and examined by FCM using Cellquest software for analysis. Humanized anti-CD3 monoclonal antibody hu12F6 (preparation see to Li B H, Wang H, Dai J X, Ji J J, Qian W Z, Zhang D P, Hou S, Guo Y J. Construction and characterization of a humanized anti-human CD3 monoclonal antibody 12F6 with effective immunoregulation functions. Immunology 2005, 116(4):487-98) was used as control. Triplicate tubes were set for each concentration of the competitive antibody. The IC₅₀ values were calculated, with the maximum fluorescence intensity indicating the average fluorescence intensity obtained in the absence of competitive antibody.

[4] = target: T1, human CD34 (antigen on human myeloid …); assay: flow cytometry competition on KG-1a cells, competitor FITC-My10; single test
Procedure: (§1) Immunology. 2005, 116(4):487-98) was used as control. Triplicate tubes were set for each concentration of the competitive antibody. The IC₅₀ values were calculated, with the maximum fluorescence intensity indicating the average fluorescence intensity obtained in the absence of competitive antibody. Repeating this test for 3 times, and gaining statistical the result, see to Table 2.

[5] = target: T1, human CD34 (antigen on human myeloid …); assay: flow cytometry competition on KG-1a cells, competitor FITC-My10; mean of 3 tests
Procedure: as §1

| Molecule | IC50 [1] | IC50 [2] [µg/mL] | IC50 [3] [µg/mL] | IC50 [4] | IC50 [5] [µg/mL] |
| --- | --- | --- | --- | --- | --- |
| murine-derived monoclonal antibody My10 (anti-CD34) | 8.67 µg/mL and 9.23 µg/mL and 8.18 µg/mL | 8.69 | – | – | – |
| B1 | – | – | 1.76 | 1.11 µg/mL and 1.14 µg/mL and 1.02 µg/mL | 1.09 |
| B2 | – | – | 1.69 | – | – |
| B3 | – | – | 1.72 | – | – |
